Laboratory results published in the RNAGym collection of RNA variant scans (doi:10.1073/pnas.2313332121).

B1: TPR t1 (parent)
chain: GACCAAUCUGCCCUCAGAGCUCGAGAACAUCUUCGGAUGCAGAGGAGGCAGGCUUCGGUGGCGCGAUAGCGCCAACGUCCUCAACCUCCAAUGCAUCCCACCACAUGAUGAUGCCUGAAGAGCCUUGGUUUUUUG

Variants of: B1
Experiment: polymerase ribozyme fitness, log enrichment relative to wild type (log ratio); higher = more active; in vitro selection for triplet polymerase activity
Summary of the method: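 Genotype fitness is the logarithm of its enrichment divided by wild-type enrichment, using inverse-variance-weighted averages of replicates. That logarithm is base 2. Enrichment was measured by Illumina sequencing of input and output libraries from one triplicate in vitro selection round, with frozen incubation at −7 °C, on PCR-built, transcribed mutant libraries of each subunit of a heterodimeric triplet polymerase ribozyme, retaining genotypes with ≥10 input reads and ≥1 read per output.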

Row | Variant | polymerase ribozyme fitness (log ratio)
1 | C53G G120A G127U | -0.0103
2 | C56A C89U | -1
3 | C53G U126A | -2.29
4 | C53A G127U | -0.16
5 | C53U C86G | -0.977
6 | C56A C88U C124A U133C | 2.43
7 | C56U A84G U133G | -1.14
8 | C53G C56G C82G C85A C94G | -2.28
9 | C53U G69U C73U | 0.0642
10 | C53A G113C | -2.28
11 | C56A G120C | 0.484
12 | U55A G71U C102U A121G U132A | 0.31
13 | C56G A100U | -0.785
14 | U54C C56A C64A C85G G117A | -7.73
15 | U54A C115U U131C G135C | -1.35
16 | C53G G61A U106G G110C C124U | -6.24
17 | C53U C85U G127C | -2.36
18 | C53U C70U A74G G113C | -4.41
19 | C56U A111C | -0.414
20 | C53U U54G C56U U129C U133G | -0.985
21 | U55C C72A U78C C79U A121G | 2.46
22 | C56U C72U U112G G117U C124U | -2.21
23 | U55G A66U | -0.936
24 | C56A C80A U116G | -4.93

Row | Variant | polymerase ribozyme fitness (log ratio)
25 | C56A G113A | -0.455
26 | C56G U112G | 0.023
27 | C56A G58C C62U C101A C104U | -1.18
28 | U55C G60A C94A G113U | -4.46
29 | U54A C56G G61A | -0.683
30 | C56A C76A C88A C115U | -3.94
31 | C53U G61U C114U | -2.37
32 | U55G G63A U81C | -3.9
33 | C56G C89A | -2.22
34 | C56G C72U U130A | -1.31
35 | U54G G71U A74U G113C A121U | -7.2
36 | C56A A66G A75G | -0.927
37 | C56U C72G U129A | -1.89
38 | C56A G69C C79U G113U G117A | -5.4
39 | C56G C64A U106C C114U | -6.98
40 | C56A C70U | -0.609
41 | C56A C70G | -3.6
42 | U54A C72U C102G U112G | -5.88
43 | C53U U67G C124G | -7.17
44 | U55C C56A A90G C94G G110C U116A A121G | -6.03
45 | C56A G71C | -4.4
46 | C56A G71A | -3.71
47 | C53U A91C U92A G122A | -4.02
48 | C53G G63C G93C C114A | -3.01

Row | Variant | polymerase ribozyme fitness (log ratio)
49 | C53U G71U G127A | -1.14
50 | C56A C88U C101U U106G C123A | -1.58
51 | C53U U55A | -0.075
52 | U54G A103U | -4.6
53 | C56G G69A A119U | -3.54
54 | C53U C94A U129C | -1.99
55 | C56U C72U U78A C80A | -4.1
56 | C53U A90U | -0.929
57 | C53A G61C G110A A119U U133A | -4.96
58 | C56G C86U U112A A118G A119G | 1.32
59 | U54A C94A | -1.16
60 | C56G C101U G120A | -0.227
61 | U54G C62G | -5.55
62 | C53U A91U C123A | -1.7
63 | C53G G58C C62A C85U G113A | -2.93
64 | C53A U78C C82U C102U | -0.997
65 | C53G C62A C70U U78G | -2.63
66 | U55A A111U | -2.8
67 | U54C U116A U131C | -3.16
68 | C56U C70U C82G C124A U130C | 0.377
69 | C56G C114A | -2
70 | C53G G57C G63C | -0.44
71 | C56G U133A | -0.615
72 | C56G A121U | 1.73

Row | Variant | polymerase ribozyme fitness (log ratio)
73 | C56U C70U | -0.666
74 | C56A U129G | -2.29
75 | C53G C72A U112G G113C | -7.66
76 | C56A C104U U106A U109A | -5.35
77 | C53G G57U G61A | -0.189
78 | C56A U112A G120A G135U | -2.22
79 | U54A C76U | -0.995
80 | C56A A100G C102U U112C G127C | -2.2
81 | C53U G93A | -0.887
82 | C56A C79A | -1.77
83 | C56U C72A G77A C97A | -3.63
84 | C56U A83U | 0.108
85 | C53G G61C A83G C88G C104A | -4.92
86 | C53G C64A U112G C124A | -6.11
87 | C53G G69A | -3.62
88 | C56G G69C U87C G110A | -5.42
89 | U55A C85U | -1.1
90 | C53A G117A | 0.856
91 | C56G G57U G63U | -3.14
92 | C53U U96C | -0.173
93 | C53U C72U G77U C82G A111C | -1.23
94 | C56G U92C C123A | -1.13
95 | C56U A83C A121U G127U U133G | 1.28
96 | C56G A68G | -3.1

Row | Variant | polymerase ribozyme fitness (log ratio)
97 | C53U G63C C98G | -6.12
98 | U54C C56U C82A U96A | -1.95
99 | C56G C64U C80A | -2.96
100 | U55A G63C C72U G77C C104A | -5.29
101 | U55C U130G | -1.43
102 | C53G C114U | -2.03
103 | C56A G63C C102A | -4.29
104 | C53G C123U | 0.236
105 | U54A C73U A121U U130A | 2.07
106 | C56G A95G | -1.22
107 | U55G U132A | -0.283
108 | C56G C123A | 0.0294
109 | C56G C123U | 0.748
110 | U55G C56U A95U | -1.91
111 | C56A C123A | 0.85
112 | C56A C104A A105U G110A | -7.24
113 | C56G C70U U96G C101U A111U | -5.15
114 | C53A U106G A121U | 0.877
115 | U55C C70U C85A | -2.03
116 | C53U C73G | -2.05
117 | U54A C70U C94A | -1.72
118 | C53G U78C C80U A91G U92C C124A | -5.02
119 | U54A A68G G71U C80G C102G G113U U125A | -6.12
120 | C53G U87G C97U G117U | -4.2

Row | Variant | polymerase ribozyme fitness (log ratio)
121 | U54A G57C A90G C114U U132A | -2.18
122 | C56G G93A C115A C123U G128U | -4.6
123 | C53G A90G | 0.537
124 | U54A C89U U96C G127A | -1.97
125 | C56A G93A | -0.661
126 | C56A G93C | -1.88
127 | U55A A83G | -0.95
128 | U55G G60U A103U | -5.31
129 | U55G C115U | -0.797
130 | C56A C80G C86U | -3.12
131 | C53A G71A C124A | 0.149
132 | U54G A95C U133A | -1.48
133 | C53G G110C | -4.65
134 | U55C A90U | -1.58
135 | U55C C72G A83G U126A | -2.13
136 | C56U A105U | -2.17
137 | C56G G60U | -1.44
138 | C53U U59C C89A C104U G117C G128U | -6.6
139 | U54A G71U U126G | -2.06
140 | C56A G60A C101A | -1.49
141 | U54G C85U U116G | -3.02
142 | C53A G120C | 0.974
143 | C53U C102U | -2.44
144 | C53U G60U | 0.63

Row | Variant | polymerase ribozyme fitness (log ratio)
145 | C53G C82A C94U U130G | -0.77
146 | C53U G71A C101G U130A | -3.93
147 | U54C G58A G69C A84U | -1.08
148 | C53U C73G G113C | -4.51
149 | U54G G61A C80A G120U | -5.8
150 | U55G C70G A100C | -3.29
151 | U55C C82A C124G | 1.37
152 | C56G G110U G135C | -1.62
153 | U54C C115A G122A C123A U131A | -1.4
154 | C56A U96A | -1.63
155 | C53G U116C | -1.68
156 | U55A U87A G122A | -0.825
157 | C56U A84G A91U C98A C99A G120U | -7.08
158 | C53A G135U | -0.659
159 | U54C G61C | -2.14
160 | C56G C72A | -2.48
161 | C53U C104A | -1.8
162 | U55A C73U C86G C99U | -4.02
163 | U55A C79G | -0.669
164 | C53U C56U | -0.207
165 | C56A G71U U81C A111U C115U | -6.9
166 | U54G G57C | -1.44
167 | C56G A68G C73U A95G | -3.3
